{"source": "paper PMC12328743", "binders": {"B1": {"name": "staphylococcal TMcin-G1905 (mature transmembrane helix-containing bacteriocin peptide, processed product of TmcA) (peptide)", "chain": "AWFVVLLAAILVFATAIFAGLTIWCVVNQHGKFTGNWNWHIKGVSLDVECKR", "modifications": "disulfide 25-50"}}, "molecular_target": "staphylococcal TMcin-G1905 (mature transmembrane helix-containing bacteriocin peptide, processed product of TmcA) (Staphylococcus aureus (isolate G1905))", "note": "Bridges are numbered along the chain shown (N, C = ends). Where no end group is shown, it is not given here.", "data": [{"binder": "B1", "values": [{"measurement": "discrete stepwise conductance events in voltage-clamped planar lipid bilayers (DPhPC, 150 mM KCl) after adding purified TMcin-G1905; median conductance", "result": 10.8, "unit": "nS"}]}]}
